± gives the half width of the 95% confidence interval.
Experiments:
[1] = folding stability dG unfold (combined trypsin and chymotrypsin); higher = more stable
In short: (§1)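 Designed mini-proteins (under 80 residues, no cysteine) in a PA-tagged cDNA display construct were digested with trypsin and chymotrypsin. Each protease was used at 11 concentrations (threefold dilutions) plus a no-protease condition, followed by sequencing. K50 was inferred by Bayesian fitting of sequencing counts, and unfolding free energy was derived against a sequence-predicted unfolded-state K50 and a shared folded-state K50, per protease or combined. Only designs with AlphaFold2 dimer inter-PAE above 15 were kept.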

[2] = folding stability dG unfold from trypsin proteolysis; higher = more stable
In short: as §1

[3] = folding stability dG unfold from chymotrypsin proteolysis; higher = more stable
In short: as §1

## SAGGSAGGSKPEYVLRVKIYNEETGELVEEIEITVKSKEEALKALKKLLPKDNVKIEVEILPPSAGGSAGGS [r12_578_TrROS_Hall]
[1]
  folding stability dG unfold: 3.2 ± 0.17 kcal/mol
[2]
  folding stability dG unfold: 3.34 ± 0.11 kcal/mol
[3]
  folding stability dG unfold: 3.09 ± 0.25 kcal/mol

## SAGGTFQVKDPNGKQKPVQLRVRITFEFKGGDKQTFEIEVEGATVDDLREFANSLMNKGFKPVSIEIWSAGG [r13_227_TrROS]
[1]
  folding stability dG unfold: 1.88 ± 0.048 kcal/mol
[2]
  folding stability dG unfold: 1.595 ± 0.0094 kcal/mol
[3]
  folding stability dG unfold: 2.03 ± 0.047 kcal/mol

## SAGGMRIRIVVPPEMSPEEIAELLKKLFPDYEIKVEVKTVKVKVKDEETGEEYEVEVLVVEIEIKEKSAGGS [r16_828_TrROS_Hall]
[1]
  folding stability dG unfold: 3.74 ± 0.14 kcal/mol
[2]
  folding stability dG unfold: 3.61 ± 0.18 kcal/mol
[3]
  folding stability dG unfold: 3.78 ± 0.12 kcal/mol

## SAGGWMTWEFELEDEDGKDIKIEVEQNPGNPWWRVKIEHKGGKPIPEIPIPADSPDDAIDQARDLLKSAGGS [r16_158_TrROS]
[1]
  folding stability dG unfold: -0.149 ± 0.33 kcal/mol
[2]
  folding stability dG unfold: 0.17 ± 0.21 kcal/mol
[3]
  folding stability dG unfold: -0.0698 ± 0.49 kcal/mol

## SAGGSAGGSKPNEIKIKKIKIEVKIKKKKVDKEKGEEIYEIEEVKIEIEEITLSKEELEKLLKSAGGSAGGS [r12_723_TrROS_Hall]
[1]
  folding stability dG unfold: 1.94 ± 0.12 kcal/mol
[2]
  folding stability dG unfold: 1.54 ± 0.097 kcal/mol
[3]
  folding stability dG unfold: 2.06 ± 0.088 kcal/mol

## SAGGSAGGSTPMSVEEIVERIKEEKRKENPNETVEIEFTAELKGGPEGAPEGIYPVKIKVPPGKSAGGSAGG [r6_79_JUSTAS]
[1]
  folding stability dG unfold: 0.208 ± 0.12 kcal/mol
[2]
  folding stability dG unfold: 0.05 ± 0.051 kcal/mol
[3]
  folding stability dG unfold: 0.489 ± 0.071 kcal/mol

## SAGGSEGMTVTELVKPPDSDEVLYVATDSAGNTFTLPGSLVKEALENGKTVEAPRPDGTAATLVLRSAGGSA [r2_301_JUSTAS]
[1]
  folding stability dG unfold: 3.1 ± 0.34 kcal/mol
[2]
  folding stability dG unfold: 2.25 ± 0.4 kcal/mol
[3]
  folding stability dG unfold: 3.5 ± 0.2 kcal/mol

## SAKFRPVEIPFEIKLEEKDPEDGKKEEREFDIKVKIMVFPDNGMVFISIEFIELGRPITIMLPPGAPIISAG [r14_587_TrROS]
[1]
  folding stability dG unfold: 3.08 ± 0.28 kcal/mol
[2]
  folding stability dG unfold: 2.61 ± 0.17 kcal/mol
[3]
  folding stability dG unfold: 3.37 ± 0.092 kcal/mol

## SAGGSAGGSAGAAVSPEELKEKAKKEGYDGEVVVTRLPDGTLRVTVKDKGKKSEITVPLESAGGSAGGSAGG [r11_410_JUSTAS]
[1]
  folding stability dG unfold: 0.672 ± 0.11 kcal/mol
[2]
  folding stability dG unfold: 0.263 ± 0.064 kcal/mol
[3]
  folding stability dG unfold: 0.942 ± 0.041 kcal/mol

## SAGGKKPKIEVKIEFDEETGKLRIEIRTEDGKLIAEKEIEIDGVLFKVKVIVKDGKLVIEIEAFPKKSAGGS [r16_631_TrROS_Hall]
[1]
  folding stability dG unfold: 3.65 ± 0.25 kcal/mol
[2]
  folding stability dG unfold: 2.79 ± 0.15 kcal/mol
[3]
  folding stability dG unfold: 3.99 ± 0.12 kcal/mol

## SAGGSAGGSAEKTLTVVIKVKPNKTPEEIAKEIKKKLNLPNVEIVSIEYDKETNYITIKVKVSAGGSAGGSA [r18_481_TrROS_Hall]
[1]
  folding stability dG unfold: 3.47 ± 0.12 kcal/mol
[2]
  folding stability dG unfold: 3.6 ± 0.086 kcal/mol
[3]
  folding stability dG unfold: 3.39 ± 0.056 kcal/mol

## SAGGSAGGGMPSITLLETVEEKLPGSRTRVTTLSYDPATGNLVVTTTTFASPGTSTTSTTVLPPSAGGSAGG [r6_745_JUSTAS]
[1]
  folding stability dG unfold: 1.33 ± 0.074 kcal/mol
[2]
  folding stability dG unfold: 1.13 ± 0.038 kcal/mol
[3]
  folding stability dG unfold: 1.51 ± 0.069 kcal/mol

## SAGGSAGGSAGGKPLYLRITVKNKDGSEREIVVPLDTTIDDILAALPPNVTEVKIEVFPVSAGGSAGGSAGG [r7_288_TrROS_Hall]
[1]
  folding stability dG unfold: 3.52 ± 0.13 kcal/mol
[2]
  folding stability dG unfold: 3.36 ± 0.11 kcal/mol
[3]
  folding stability dG unfold: 3.52 ± 0.13 kcal/mol

## SAGGSAMTYTITLKTPGSQSLELSLDEKLKLLSQTIDPNTGVTTLTLEGDPEEAKKLEQEIKEKLASAGGSA [r15_662_JUSTAS]
[1]
  folding stability dG unfold: 1.56 ± 0.17 kcal/mol
[2]
  folding stability dG unfold: 1.56 ± 0.059 kcal/mol
[3]
  folding stability dG unfold: 1.66 ± 0.11 kcal/mol

## SAMTVERLPDGSLRITIPDPNSDTTYTIEIRRLPDGSYEVTITTTKPDGSTTTTTRPMSEEEAIAEVLASAG [r14_179_JUSTAS]
[1]
  folding stability dG unfold: 3.6 ± 0.055 kcal/mol
[2]
  folding stability dG unfold: 3.75 ± 0.061 kcal/mol
[3]
  folding stability dG unfold: 3.54 ± 0.068 kcal/mol

## SAGGDPPNIEVVPYRVKFGGKPIPIQVFVMPNGQTIVRIKFPNGKKGWMPADDLDELLKNPFEIERVSAGGS [r16_105_TrROS]
[1]
  folding stability dG unfold: 1.11 ± 0.14 kcal/mol
[2]
  folding stability dG unfold: 1.21 ± 0.023 kcal/mol
[3]
  folding stability dG unfold: 0.998 ± 0.14 kcal/mol

## SAGGATPLPDGGYRLTYTVKLSPSESVEDAPKAAAALAEKYGVTPVAITVDPSTGTVTIDILLPPEVRSAGG [r13_178_JUSTAS]
[1]
  folding stability dG unfold: 1.44 ± 0.095 kcal/mol
[2]
  folding stability dG unfold: 1.01 ± 0.046 kcal/mol
[3]
  folding stability dG unfold: 1.68 ± 0.11 kcal/mol

## SAGGSAGGSAGIEIELNGKPVTIHPNPDGYYRVRFPGPGKSILIPGMPPDDIKDFAKELLSAGGSAGGSAGG [r11_1085_TrROS]
[1]
  folding stability dG unfold: 0.0206 ± 0.1 kcal/mol
[2]
  folding stability dG unfold: -0.161 ± 0.15 kcal/mol
[3]
  folding stability dG unfold: 0.137 ± 0.15 kcal/mol

## SAGGSAGGSGEELRNLLANVKKVTVFPNADGGLGVLIELEPEEPEERTIVLNYDQLAELLALGSAGGSAGGS [r12_466_TrMRF]
[1]
  folding stability dG unfold: 0.936 ± 0.15 kcal/mol
[2]
  folding stability dG unfold: 0.916 ± 0.026 kcal/mol
[3]
  folding stability dG unfold: 0.813 ± 0.11 kcal/mol

## SAGGSAEKVEIKVTYDKETGKVTVEIRVEVDLSEEQLKKLKELAEELGLEVEVTVEVRYEPPPPKESAGGSA [r15_542_TrROS_Hall]
[1]
  folding stability dG unfold: 2.27 ± 0.49 kcal/mol
[2]
  folding stability dG unfold: 2.99 ± 0.38 kcal/mol
[3]
  folding stability dG unfold: 2.18 ± 0.31 kcal/mol

## SAGGSAGGSAGPNWKKYTFTIFFPGYPFRVEIERPKDGPNAPLAIKIEDPNGKPMETFPISAGGSAGGSAGG [r11_223_TrROS]
[1]
  folding stability dG unfold: 2.67 ± 0.12 kcal/mol
[2]
  folding stability dG unfold: 2.71 ± 0.11 kcal/mol
[3]
  folding stability dG unfold: 2.61 ± 0.082 kcal/mol

## SAGMGIVEALRRELEAAGLDVRVSATVEPLPDLGYVLITVHVEVRNENGEWVPLGPLTILLPVEEAERLSAG [r5_413_TrMRF]
[1]
  folding stability dG unfold: 2.55 ± 0.13 kcal/mol
[2]
  folding stability dG unfold: 2.9 ± 0.12 kcal/mol
[3]
  folding stability dG unfold: 2.43 ± 0.07 kcal/mol

## SAGGGADVISAYDPETVEELSKLPWVTSVTYDPETGRYDIRFERPDGQYNYVVDNVTKEVLEVSPVDSAGGS [r8_251_TrMRF]
[1]
  folding stability dG unfold: 1.3 ± 0.1 kcal/mol
[2]
  folding stability dG unfold: 1.03 ± 0.07 kcal/mol
[3]
  folding stability dG unfold: 1.29 ± 0.053 kcal/mol

## SMKKNTLTLTVKVKVTVTVVKKKKDGKEEVVKKETVEVTVKVTFLSKEELEKLKKELEKLKKELEELKKKSA [r9_1192_TrROS_Hall]
[1]
  folding stability dG unfold: 3.39 ± 0.75 kcal/mol
[2]
  folding stability dG unfold: 2.72 ± 0.27 kcal/mol
[3]
  folding stability dG unfold: 4.7 ± 0.27 kcal/mol

## SAMTVYYKITAEVEKTIGDTPETLTVPLTLTVPPDKLNEEEIKKIAEEKAKELGYTLKKIEISKTPSLPSAG [r14_278_JUSTAS]
[1]
  folding stability dG unfold: 2.11 ± 0.21 kcal/mol
[2]
  folding stability dG unfold: 2.22 ± 0.084 kcal/mol
[3]
  folding stability dG unfold: 2.06 ± 0.17 kcal/mol

## SAGGGSMSESLSLVEEEIKVGETVVKVKRLIYPVSGTALVEITKPGGGPIGVFNTTISPSTGGVELLSAGGS [r16_798_JUSTAS]
[1]
  folding stability dG unfold: < -1 kcal/mol
[2]
  folding stability dG unfold: -1.04 ± 0.17 kcal/mol
[3]
  folding stability dG unfold: -1.38 ± 0.57 kcal/mol

## SAGMIATITITRPGTGSITLTVPVPVPSEEEARAYAEAVREALRAADPGPLEVSVEFERVPPVPPERLGSAG [r5_87_JUSTAS]
[1]
  folding stability dG unfold: 1.75 ± 0.1 kcal/mol
[2]
  folding stability dG unfold: 1.6 ± 0.038 kcal/mol
[3]
  folding stability dG unfold: 1.85 ± 0.036 kcal/mol

## SAGGMLTLTDPETGVPYTGTPVSTTTTTVVLTTPDGTPVETVTVTVTTYEFTAPDGTPVTLTETTGLSAGGS [r8_214_JUSTAS]
[1]
  folding stability dG unfold: 2.08 ± 0.052 kcal/mol
[2]
  folding stability dG unfold: 1.75 ± 0.071 kcal/mol
[3]
  folding stability dG unfold: 2.27 ± 0.025 kcal/mol

## SAGGSAGGSAKKIKIKIKVYNPETKEVLELEIEVSEEEAEELAKKLAEELEKKGYKIEEVEISAGGSAGGSA [r18_3_TrROS_Hall]
[1]
  folding stability dG unfold: 3.85 ± 0.12 kcal/mol
[2]
  folding stability dG unfold: 4.48 ± 0.35 kcal/mol
[3]
  folding stability dG unfold: 3.47 ± 0.084 kcal/mol

## SAGGSAGGSAGGKVKIVSVSYDPETGKLTVEVEIPNPKKLLTVTTDNPNIPAEEIAKKLASAGGSAGGSAGG [r7_833_TrMRF]
[1]
  folding stability dG unfold: 0.362 ± 0.15 kcal/mol
[2]
  folding stability dG unfold: 0.453 ± 0.091 kcal/mol
[3]
  folding stability dG unfold: 0.058 ± 0.056 kcal/mol

## SAELLDALKKNGWTIRIPIKHPGNGETWPMPFRIEPDGDGWKISIPPPNGKPHPFKIEDIEIMPPEDLKSAG [r14_427_TrROS]
[1]
  folding stability dG unfold: 0.561 ± 0.2 kcal/mol
[2]
  folding stability dG unfold: 0.723 ± 0.11 kcal/mol
[3]
  folding stability dG unfold: 0.406 ± 0.42 kcal/mol

— the supplement of paper PMC12764529
